Molecular target: single-chain H2B-H2A.Z (human)
Experiment: crystal structure

B1: Peptide SRCAP_(531-560) (peptide)
peptide: SEDAQSQSQADEEEEDDDFGVEYLLARDEE
B1: binds.

Source: article doi:10.64898/2025.12.30.697126 (bioRxiv, 2025)
